Laboratory results from article PMC3877120, “Pentavalent Single-Domain Antibodies Reduce Campylobacter jejuni Motility and Colonization in Chickens” (PLoS ONE, 2013).

What was measured:
[1] = target: T1, C. jejuni 81–176 flagella (Campylobacter jejuni strain 81–176, biotin (Sulfo-NHS-LC-LC-biotin), in the SPR only | biotin (Sulfo-NHS-LC-LC-biotin), in the SPR only); assay: SPR; Biacore 3000; biotinylated flagella (700–900 RU) captured on an SA sensor chip; VHHs injected at 40 µl/min; 25°C; 10 mM HEPES pH 7.4, 150 mM NaCl, 3 mM EDTA, 0.005% P20; 1:1 interaction model; settings: both partners purified
T1 construct: flagellin FlaA of C. jejuni strain 81–176; flagellin FlaB of C. jejuni strain 81–176; also called flagellin; flagella protein; source: purified from C. jejuni 81–176 (sheared, ultracentrifugation, 1% SDS wash); also on formalin-fixed C. jejuni 81–176 cells
T1 chain 1: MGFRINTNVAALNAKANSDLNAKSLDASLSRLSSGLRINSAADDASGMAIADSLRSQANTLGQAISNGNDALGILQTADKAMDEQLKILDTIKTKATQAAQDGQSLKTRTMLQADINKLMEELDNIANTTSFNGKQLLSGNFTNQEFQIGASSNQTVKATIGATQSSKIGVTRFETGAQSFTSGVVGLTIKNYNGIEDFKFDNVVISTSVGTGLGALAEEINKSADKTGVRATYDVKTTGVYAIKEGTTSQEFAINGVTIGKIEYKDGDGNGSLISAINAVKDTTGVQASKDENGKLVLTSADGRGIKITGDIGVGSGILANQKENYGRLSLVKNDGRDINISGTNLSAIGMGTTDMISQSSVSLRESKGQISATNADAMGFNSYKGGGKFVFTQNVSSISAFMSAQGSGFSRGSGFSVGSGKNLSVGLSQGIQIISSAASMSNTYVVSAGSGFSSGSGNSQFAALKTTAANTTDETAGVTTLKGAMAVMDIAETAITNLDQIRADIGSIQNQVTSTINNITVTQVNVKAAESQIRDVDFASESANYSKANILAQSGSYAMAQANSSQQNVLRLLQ
T1 chain 2: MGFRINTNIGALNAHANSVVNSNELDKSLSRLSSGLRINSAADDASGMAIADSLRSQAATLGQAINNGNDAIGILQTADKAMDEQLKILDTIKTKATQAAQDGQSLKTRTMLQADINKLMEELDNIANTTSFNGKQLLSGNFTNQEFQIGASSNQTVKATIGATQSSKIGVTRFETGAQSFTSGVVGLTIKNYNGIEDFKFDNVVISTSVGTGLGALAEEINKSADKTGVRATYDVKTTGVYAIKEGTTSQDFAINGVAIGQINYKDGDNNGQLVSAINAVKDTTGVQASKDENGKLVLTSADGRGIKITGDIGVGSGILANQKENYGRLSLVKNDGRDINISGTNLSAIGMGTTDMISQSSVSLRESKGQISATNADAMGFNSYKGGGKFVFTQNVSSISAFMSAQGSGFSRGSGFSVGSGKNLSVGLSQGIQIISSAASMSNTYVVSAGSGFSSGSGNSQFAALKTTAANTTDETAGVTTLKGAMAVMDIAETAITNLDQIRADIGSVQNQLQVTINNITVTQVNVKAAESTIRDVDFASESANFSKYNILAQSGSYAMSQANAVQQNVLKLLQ

[2] = target: T1, C. jejuni 81–176 flagella; assay: ELISA; C. jejuni 81–176 flagella coated on Maxisorp plates (5 µg/ml in PBS); monomeric or pentameric VHH at 10 to 0.0001 µg/ml, 1 h at 37°C; detected with anti-His6-HRP; concentration of 50% maximum binding; settings: both partners purified

B1: FlagV1M (monomeric flagella-specific VHH FlagV1) (VHH)
VHH: QVKLEESGGGLVQAGGSRRLSCATSGLTFRNFHMAWFRQVAGKEREVVAAISWSRDRQYYPDPVKGRFTITRDNAKNTVYLQMNSLKPEDTAVYYCAARTASASGDWYKGSYQYWGQGTQVTVSS
notes: llama VHH from an immune phage display library; also called FlagV1 VHH; source: E. coli TG1, periplasm, purified (IMAC; Superdex 75 before SPR)
Kd [1]: 20 nM | koff [1]: 0.002 s⁻¹ | kon [1]: 100000 M⁻¹ s⁻¹ | EC50 [2]: 15.6 nM
